Results on one compound are retold here after US9176064B2, “Bisubstrate fluorescent probes for protein kinase CK2” (University of Tartu, priority 2012, dated 2015).

What all share (experiment): Kinase panel residual activity
Holding throughout (assay type): biochemical
Settings in all cases: compound at 1 micromolar

The target of one series is T1, ULK1 (Homo sapiens, UniProt O75385).
T1 sequence (O75385 1-1050): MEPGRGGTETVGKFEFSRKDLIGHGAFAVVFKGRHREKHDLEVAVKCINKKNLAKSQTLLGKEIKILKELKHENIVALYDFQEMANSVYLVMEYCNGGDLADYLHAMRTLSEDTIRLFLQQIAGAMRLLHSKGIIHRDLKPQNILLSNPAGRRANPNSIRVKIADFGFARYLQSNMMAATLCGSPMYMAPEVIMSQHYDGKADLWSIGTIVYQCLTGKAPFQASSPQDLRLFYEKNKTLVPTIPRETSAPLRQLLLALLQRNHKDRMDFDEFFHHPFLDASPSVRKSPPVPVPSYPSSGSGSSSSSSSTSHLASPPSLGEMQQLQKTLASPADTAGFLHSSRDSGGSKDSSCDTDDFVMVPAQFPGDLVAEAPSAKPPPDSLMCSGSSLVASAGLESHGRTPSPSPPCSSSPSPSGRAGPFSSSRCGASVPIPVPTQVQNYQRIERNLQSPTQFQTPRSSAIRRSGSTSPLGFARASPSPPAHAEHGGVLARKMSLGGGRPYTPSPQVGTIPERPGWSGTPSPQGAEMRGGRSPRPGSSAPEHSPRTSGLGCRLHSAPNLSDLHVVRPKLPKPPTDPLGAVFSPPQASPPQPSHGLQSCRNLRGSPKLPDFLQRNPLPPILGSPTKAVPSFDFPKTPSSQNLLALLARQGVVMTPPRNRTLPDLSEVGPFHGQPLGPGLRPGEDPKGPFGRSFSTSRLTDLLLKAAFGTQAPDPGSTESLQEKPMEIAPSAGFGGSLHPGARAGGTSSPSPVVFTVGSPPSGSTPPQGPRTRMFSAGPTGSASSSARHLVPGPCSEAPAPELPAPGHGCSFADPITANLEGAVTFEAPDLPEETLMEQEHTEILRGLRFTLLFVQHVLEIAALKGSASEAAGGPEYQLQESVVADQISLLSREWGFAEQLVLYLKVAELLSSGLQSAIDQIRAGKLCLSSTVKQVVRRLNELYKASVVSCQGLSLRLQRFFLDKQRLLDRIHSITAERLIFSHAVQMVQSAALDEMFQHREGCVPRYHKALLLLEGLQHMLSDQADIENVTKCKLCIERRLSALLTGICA

The next series concerns the target T2, TBK1 (Homo sapiens, UniProt Q9UHD2).
T2 sequence (Q9UHD2 1-729): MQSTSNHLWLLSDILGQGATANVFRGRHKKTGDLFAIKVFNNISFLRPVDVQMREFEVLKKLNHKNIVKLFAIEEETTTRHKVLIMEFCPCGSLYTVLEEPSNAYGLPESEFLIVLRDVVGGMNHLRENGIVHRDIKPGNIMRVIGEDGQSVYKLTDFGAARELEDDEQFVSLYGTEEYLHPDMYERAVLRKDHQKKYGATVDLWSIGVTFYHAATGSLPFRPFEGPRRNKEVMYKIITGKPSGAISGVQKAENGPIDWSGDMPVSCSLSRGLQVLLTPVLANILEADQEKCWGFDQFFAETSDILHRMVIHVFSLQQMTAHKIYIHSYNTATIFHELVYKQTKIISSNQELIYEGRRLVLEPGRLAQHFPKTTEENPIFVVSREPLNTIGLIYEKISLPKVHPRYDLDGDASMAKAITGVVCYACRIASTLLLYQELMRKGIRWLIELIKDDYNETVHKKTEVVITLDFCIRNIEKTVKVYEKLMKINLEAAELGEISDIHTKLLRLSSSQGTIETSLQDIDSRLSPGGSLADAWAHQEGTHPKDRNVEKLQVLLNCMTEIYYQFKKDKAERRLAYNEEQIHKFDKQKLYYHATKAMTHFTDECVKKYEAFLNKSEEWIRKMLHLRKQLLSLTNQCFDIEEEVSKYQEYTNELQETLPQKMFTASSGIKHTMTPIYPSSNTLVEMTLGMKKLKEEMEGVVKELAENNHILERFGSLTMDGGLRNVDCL

In the next series the target is SIK2 (Homo sapiens, UniProt Q9H0K1).
The next series concerns the target T3, PKD1 (Homo sapiens, UniProt Q15139).
T3 sequence (Q15139 1-912): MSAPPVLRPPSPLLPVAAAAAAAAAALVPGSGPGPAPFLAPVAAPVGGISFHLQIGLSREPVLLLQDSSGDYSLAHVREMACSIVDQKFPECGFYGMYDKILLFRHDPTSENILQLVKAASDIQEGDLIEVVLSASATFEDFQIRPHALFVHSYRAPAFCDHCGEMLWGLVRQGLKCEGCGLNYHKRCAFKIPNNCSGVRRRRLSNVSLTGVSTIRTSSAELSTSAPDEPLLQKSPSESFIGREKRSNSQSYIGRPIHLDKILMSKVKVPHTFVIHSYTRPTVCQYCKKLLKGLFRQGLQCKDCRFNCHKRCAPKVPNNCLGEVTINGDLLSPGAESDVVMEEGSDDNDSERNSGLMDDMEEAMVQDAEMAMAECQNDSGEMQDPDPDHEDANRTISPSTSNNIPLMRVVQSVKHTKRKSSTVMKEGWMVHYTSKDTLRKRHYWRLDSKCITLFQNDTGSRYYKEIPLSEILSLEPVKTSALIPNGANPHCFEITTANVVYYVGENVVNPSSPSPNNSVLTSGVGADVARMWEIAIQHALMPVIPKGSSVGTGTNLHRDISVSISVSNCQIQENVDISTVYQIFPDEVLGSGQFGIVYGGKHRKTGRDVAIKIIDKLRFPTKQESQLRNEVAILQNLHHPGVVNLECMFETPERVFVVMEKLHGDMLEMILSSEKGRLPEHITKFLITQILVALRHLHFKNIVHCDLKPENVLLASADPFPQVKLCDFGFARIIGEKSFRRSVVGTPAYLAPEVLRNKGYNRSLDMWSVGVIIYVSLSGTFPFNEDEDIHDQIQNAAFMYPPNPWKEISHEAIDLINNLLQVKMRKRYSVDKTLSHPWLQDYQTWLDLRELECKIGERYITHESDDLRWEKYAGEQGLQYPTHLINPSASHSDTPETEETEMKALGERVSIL

In a further series the target is PDGFRA (Homo sapiens, UniProt P16234).

Where a SMILES comes first, the peptide text is derived from it. [ ]: non-standard residue; d: D form. The star is where a group is joined. X1 = O=C(CCCCCCCn1cnc2c(Br)c(Br)c(Br)c(Br)c21)*

Sequence of SIK2 (Q9H0K1 whole entry, species assumed): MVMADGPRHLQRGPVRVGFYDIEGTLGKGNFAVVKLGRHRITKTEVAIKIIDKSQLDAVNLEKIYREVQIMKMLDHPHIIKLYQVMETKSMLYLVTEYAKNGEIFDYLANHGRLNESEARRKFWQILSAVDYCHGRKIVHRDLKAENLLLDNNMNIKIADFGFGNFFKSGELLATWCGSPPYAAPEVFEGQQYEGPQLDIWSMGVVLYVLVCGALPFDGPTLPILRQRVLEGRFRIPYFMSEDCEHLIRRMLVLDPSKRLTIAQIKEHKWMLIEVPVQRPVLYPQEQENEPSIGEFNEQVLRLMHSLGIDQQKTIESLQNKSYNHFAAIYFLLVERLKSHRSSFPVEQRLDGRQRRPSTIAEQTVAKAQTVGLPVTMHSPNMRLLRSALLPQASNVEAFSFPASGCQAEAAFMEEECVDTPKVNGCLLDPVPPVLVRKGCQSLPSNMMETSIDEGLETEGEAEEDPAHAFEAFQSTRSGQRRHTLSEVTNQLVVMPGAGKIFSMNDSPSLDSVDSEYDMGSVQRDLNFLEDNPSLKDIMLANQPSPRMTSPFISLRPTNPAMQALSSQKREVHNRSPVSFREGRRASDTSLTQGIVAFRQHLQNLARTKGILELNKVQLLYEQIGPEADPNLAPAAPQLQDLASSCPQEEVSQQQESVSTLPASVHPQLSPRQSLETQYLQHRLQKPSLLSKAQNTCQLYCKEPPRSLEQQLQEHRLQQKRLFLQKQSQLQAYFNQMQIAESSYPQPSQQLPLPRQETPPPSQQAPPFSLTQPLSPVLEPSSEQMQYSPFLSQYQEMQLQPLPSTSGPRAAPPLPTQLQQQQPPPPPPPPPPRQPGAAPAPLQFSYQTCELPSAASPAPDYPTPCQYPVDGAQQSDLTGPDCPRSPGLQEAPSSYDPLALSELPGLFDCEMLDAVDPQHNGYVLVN
Sequence of PDGFRA (P16234 24-1089, species assumed): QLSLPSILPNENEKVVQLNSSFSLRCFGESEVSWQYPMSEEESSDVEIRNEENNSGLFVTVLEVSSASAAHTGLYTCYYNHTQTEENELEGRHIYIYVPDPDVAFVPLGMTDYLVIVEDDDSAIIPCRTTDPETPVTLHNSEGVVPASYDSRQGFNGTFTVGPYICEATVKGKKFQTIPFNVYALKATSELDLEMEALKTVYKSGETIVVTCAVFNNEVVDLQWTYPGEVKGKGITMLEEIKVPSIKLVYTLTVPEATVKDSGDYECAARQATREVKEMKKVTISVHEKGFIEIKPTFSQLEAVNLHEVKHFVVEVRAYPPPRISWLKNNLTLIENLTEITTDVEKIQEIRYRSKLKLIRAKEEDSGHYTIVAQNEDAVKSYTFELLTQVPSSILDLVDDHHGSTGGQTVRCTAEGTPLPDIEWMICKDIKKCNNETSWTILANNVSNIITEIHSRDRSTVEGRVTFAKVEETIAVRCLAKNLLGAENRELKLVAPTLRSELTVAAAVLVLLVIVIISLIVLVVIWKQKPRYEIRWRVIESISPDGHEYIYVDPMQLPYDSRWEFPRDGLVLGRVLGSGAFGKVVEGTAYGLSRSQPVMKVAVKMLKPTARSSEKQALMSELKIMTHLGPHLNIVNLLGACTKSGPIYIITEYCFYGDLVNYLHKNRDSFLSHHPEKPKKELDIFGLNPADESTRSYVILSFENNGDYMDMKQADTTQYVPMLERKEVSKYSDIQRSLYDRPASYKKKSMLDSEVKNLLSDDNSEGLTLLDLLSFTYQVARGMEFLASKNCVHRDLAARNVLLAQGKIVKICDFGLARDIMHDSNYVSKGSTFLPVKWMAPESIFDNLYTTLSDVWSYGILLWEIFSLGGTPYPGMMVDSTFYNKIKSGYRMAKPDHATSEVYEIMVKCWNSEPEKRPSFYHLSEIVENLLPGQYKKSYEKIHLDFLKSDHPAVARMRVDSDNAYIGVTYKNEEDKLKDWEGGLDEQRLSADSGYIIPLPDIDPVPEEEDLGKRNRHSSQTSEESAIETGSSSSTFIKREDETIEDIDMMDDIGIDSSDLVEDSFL

The term remaining activity denotes the signal under treatment as a percentage of the control signal. `NCCCC[C@H](NC(=O)[C@H](CC(=O)O)NC(=O)[C@H](CC(=O)O)NC(=O)[C@H](CC(=O)O)NC(=O)[C@H](CC(=O)O)NC(=O)[C@H](CC(=O)O)NC(=O)[C@@H](CC(=O)O)NC(=O)CCCCCCCn1cnc2c(Br)c(Br)c(Br)c(Br)c21)C(=O)O` [TBBI-OcA-(D-Asp)-(L-Asp)5-(L-Lys)-OH] (X1-[dD]DDDDDK-OH): the remaining activity at 1 µM is 111% with ULK1; 93% with TBK1; 74% with SIK2; 72% with PKD1; 77% in the series with PDGFRA.
